Measured values reported in the nanobody polyreactivity screen of Harvey et al. (2022).

Assay: yeast display, Sf9 membrane polyspecificity reagent, FACS + sequencing; frameworks hold sequencing errors
Summary of the method: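 Synthetic nanobody libraries on Saccharomyces cerevisiae BJ5465 were galactose-induced for 36–48 hours, stained 1 hour at 4 °C with 10% biotinylated, detergent-solubilized Sf9 membrane reagent and enriched on streptavidin microbeads. FACS then separated cells into low and high (top ~1%) gates by anti-HA (expression) and streptavidin (reagent binding) fluorescence. Genes were colony-PCR amplified, MiSeq 2 × 250 sequenced and CDR-length filtered. A clone's polyreactivity label is that of its gate of origin.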

Row | Sequence | polyreactivity (PSR sort gate)
1 | QVQLVESGGGLVQAGGSLRLSCAASGFTFYHYAMGWYRPAPGKERELVAAISKSGGRTYYADSVKGRFTISRDNAMYTVYLQMNSLKPEDTAVYYFNAAYRTTSYENDYWGQGTQVTVSS | low polyreactivity
2 | QVQLVESGGGLVQAGGSLRLSCAASGFTFYHYAMGWYRQAPGKEREFVAAISASGGSTYYADSVKGRFTISRDNAKNTVYLQMNSLKPEDTAVYYCNARYYYFSVRYKYDFNYWGQVTQVTVSS | high polyreactivity
3 | QVQLVESGGGLVQAGGSLRLSCAASGFTFYHYAMGWYRQAPGKERELGAAISRSGGSTYYADSVKGRFTISRDNAKNTVYLQMNSLKPEDTAVYYCAKVLRAKNSFDYWGQGTQVTVSS | high polyreactivity
4 | QVQLVESGGGLVQAGGSLRLSCAASGFTFYIYAMGWYRQAPGKERELVAAITGSGGRTYYADSVKGRFTISRDTAKNTVYLQMNSLKPEDTAVYYCAADKYRRGLAGAVARVNYWGQGTQVTVSS | high polyreactivity
5 | QVQLVESGGGLVQAGGSLRLSCAASGFTFYIYAMGWYRQAPGKERELVAGIDYSGGSTYYADSVKGRFTISRDNAKNTVYLQMNSLKPEDTAVYYCARYGPYQSSYHYDYWGQGTQVTVSS | high polyreactivity
6 | QVQLVESGGGLVQAGGSLRLSCAASGFTFYIYAMGWYRQAPGKERELVARISSGGRTYYADSVKGRFTISRDNAKNTVYLQMNRLKPEDTAVYDCHFWYGSWGQGTQVTVSS | low polyreactivity
7 | QVQLVESGGGLVQAGGSLRLSCAASGFTFYIYAMGWYRQAPGKERELVARISSGGRTYYADSVKGRFTISRDNAKNTVYLQMNSLKPEDTAVFDCHFWYGSWGQGTQVTVSS | low polyreactivity
8 | QVQLVESGGGLVQAGGSLRLSCAASGFTFYKNAMGWYRQAPGKERELVAAITSSGGSTYYADSVKGRFTISRDNAKNTVYLQMNSLKPEDTAVYYCAARASRPRFGYWGQGTQVTVSS | high polyreactivity
9 | QVQLVESGGGLVQAGGSLRLSCAASGFTFYKNTMGWYRQAPGKERELVAAISSSGSSTYYADSVKGRFTISRDNAKNTVYLQMNSLKPEDTAVYYCAAVYRSWTSYNGRNYWGQGTQVTVSS | high polyreactivity
10 | QVQLVESGGGLVQAGGSLRLSCAASGFTFYKYAMGWYRQAPGKERELVAAINWSGGSTYYADSVKGRFTISRDNAKNTVYLQMNSLKPEDTAVYYCAAERGTTYAYDYWGQGTQVTVSS | high polyreactivity
11 | QVQLVESGGGLVQAGGSLRLSCAASGFTFYKYAMGWYRQAPGKERELVATISWSGARTYYADSVKGRFTISRDNAKNTVYLQMNSLKPEDTAVYYCNARRAYRWKPYTGSAGMDYWGQGTQVTVSS | high polyreactivity
12 | QVQLVESGGGLVQAGGSLRLSCAASGFTFYKYVMGWYRQAPGKERELVAAITQGGGSTYYADSVKGRFTISRDNAKNTVYLQMNSLKPEDTAVYYCNARNGYGIGYWGQGTQVTVSS | high polyreactivity
13 | QVQLVESGGGLVQAGGSLRLSCAASGFTFYLYAMGWYRQAPGKERELVAAINSGSSTYYADSVKGRFTISRDNAKNTVYLQMNSLKPEDTAVYYCATDTDRTMDYWGQGTQVTVSS | low polyreactivity
14 | QVQLVESGGGLVQAGGSLRLSCAASGFTFYLYAMGWYRQAPGKERELVAAINSGSSTYYADSVKGRFTISRDNAKNTVYLQMNSLNPEDTAVYYCATDTDRTMDYWGQGTQVTVSS | low polyreactivity
15 | QVQLVESGGGLVQAGGSLRLSCAASGFTFYLYAMGWYRQAPGKERELVAAITGRGTRTYYADSVKGRFTISRDNAKNTVYLQMNSLKPEDTAVYYCATGGANVDGDAYDYWGQGTQVTVSS | high polyreactivity
16 | QVQLVESGGGLVQAGGSLRLSCAASGFTFYLYAMGWYRQAPGKERELVAASTWSGGRTYYADSVKGRFTISRDNAKNTVYLQMNSLKPEDTADYYCAVDGFRGRSHGANDFWGQGTQVTVSS | high polyreactivity

Row | Sequence | polyreactivity (PSR sort gate)
17 | QVQLVESGGGLVQAGGSLRLSCAASGFTFYLYTMGWYLQAPGKERELVATITSDGGTNYADSVKGRFTISRDNAKNTVYLQMNSLKPEDTAVYYCNAASRRGSRKQAKYDYWGQGTQVTVSS | low polyreactivity
18 | QVQLVESGGGLVQAGGSLRLSCAASGFTFYPYAMGWYRQAPGKERELVARITWSGGSTSYADSVKGRFTISRDNAKNTVYLQMNSLKPEDTAVYYCSKAYHHSEFDYWGLGTQVTVSS | high polyreactivity
19 | QVQLVESGGGLVQAGGSLRLSCAASGFTFYQYAMGSYRQAPGKESEFVATISSGGSTYYADSVKGRFTISRDNAKNTFYLQMNSLIPEDTAVYYCAKVDFIVGYYYWGQGTQVTVSS | low polyreactivity
20 | QVQLVESGGGLVQAGGSLRLSCAASGFTFYRNAMGWYRPAPGKERELVAAISGRGGGTYYADSVKGRFTISRDNAKNTVYLQMNSLKPEDTAVYYCNARLSWSAFGYWGQGTQVTVSS | high polyreactivity
21 | QVQLVESGGGLVQAGGSLRLSCAASGFTFYRNAMGWYRQAPGKERELVAAITRAGSTYYADSVKGRFTISRDNAKNTVYLQMNSLKPEDTAVYYCFDMSNRYAVRYDYWGQGTQVSVSS | high polyreactivity
22 | QVQLVESGGGLVQAGGSLRLSCAASGFTFYRNARGWYRQAPGKERELVAAISISGGSTYYADSVKGRFTISRDNAKNTVYLQMNSLKPEDTAVYYCAAYYYRDRYSRVKVTYWGQGTQVTVSS | high polyreactivity
23 | QVQLVESGGGLVQAGGSLRLSCAASGFTFYRNVMGWYRQAPGKERELVAAISSRGGSTYYADSVKGRFTISRDNAKNTVYLQMNSLKPEDTAVYYCNKARYTVISYDEYDYWGQGTQVTVSS | high polyreactivity
24 | QVQLVESGGGLVQAGGSLRLSCAASGFTFYRYAMGCYRQAPGKERELVAAITSSGGNTYYADSVKGRFTISRDNGKNTVYLQMNSLKPEDTAVYYCAKYTRIRFEYEYWGLGTQVTVSS | high polyreactivity
25 | QVQLVESGGGLVQAGGSLRLSCAASGFTFYRYAMGWYRHAPGKERELVAAITRSGSRTYYADSVKGRFTISRDNAKNTVYLQMNSLKPEDTAVYYFNTDGGDHPTARYGYWGQVTQVTVSS | high polyreactivity
26 | QVQLVESGGGLVQAGGSLRLSCAASGFTFYRYAMGWYRPAPGKERELVAAISKSGGTTFYADSVKGRFTISRDNAKNTVYLQMNSLKPEDTEVYYCAVDVPYVQSYIPDPPNVYYWGQGTQVTVSS | high polyreactivity
27 | QVQLVESGGGLVQAGGSLRLSCAASGFTFYRYAMGWYRQAPGKERELVAAISTSGGSTYYADSVKGRFTISRDNAKNTVYLQMNSLKPEDTAVYYCAASYYGKRDRAGPYYSFDYWGQGTQVTVSS | high polyreactivity
28 | QVQLVESGGGLVQAGGSLRLSCAASGFTFYRYAMGWYRQAPGKERELVAAITWSGGATYYADSVKGRFTISRDNAKNTVYLQMNSLKPEDTAVYYCAADIYDGGFDYWGQGTQVTVSS | low polyreactivity
29 | QVQLVESGGGLVQAGGSLRLSCAASGFTFYRYAMGWYRQAPGQEREVVAAIRKSGGSTYYADSVKGRFTISRDNAKTTVYLQMNSLKPEDTAVYYCAKRYATDGFGYWGQGTQVTVSS | high polyreactivity
30 | QVQLVESGGGLVQAGGSLRLSCAASGFTFYRYDMGWYRQAPGKERELVAAITNNGGKTYYADSVKGRITISRDNAKYSDYLQMNSLKPVDTAVYYSAAEFYWGDLSYWGQGTQVTVSS | high polyreactivity
31 | QVQLVESGGGLVQAGGSLRLSCAASGFTFYRYTMGWYRQAPGKERELVAAISRGGRTYYADSVKGRFTISRDNAKNTVYLQMNSLKPEDTAVYYCNARYPSADDWGQGTQVTVSS | high polyreactivity
32 | QVQLVESGGGLVQAGGSLRLSCAASGFTFYRYTMGWYRQAPGKERELVAAISRRGGRTYYADSVKGRFTISRDYAKNSVYLQMNSLKPEDTAVYYCAADSAAYVFGEAYDYWGKGTQVTVSS | high polyreactivity
